Data: patent US20240287172A1 (SCIRHOM, published 2024)

Tests used:
hiR2-FL-K573A-T7 = biological target: T1, hiR2-FL-K573A-T7 (human, UniProt Q6PJF5 1-856); experiment: FACS on MEF-DKO cells expressing the variant, 3 µg/ml antibody
T1 sequence: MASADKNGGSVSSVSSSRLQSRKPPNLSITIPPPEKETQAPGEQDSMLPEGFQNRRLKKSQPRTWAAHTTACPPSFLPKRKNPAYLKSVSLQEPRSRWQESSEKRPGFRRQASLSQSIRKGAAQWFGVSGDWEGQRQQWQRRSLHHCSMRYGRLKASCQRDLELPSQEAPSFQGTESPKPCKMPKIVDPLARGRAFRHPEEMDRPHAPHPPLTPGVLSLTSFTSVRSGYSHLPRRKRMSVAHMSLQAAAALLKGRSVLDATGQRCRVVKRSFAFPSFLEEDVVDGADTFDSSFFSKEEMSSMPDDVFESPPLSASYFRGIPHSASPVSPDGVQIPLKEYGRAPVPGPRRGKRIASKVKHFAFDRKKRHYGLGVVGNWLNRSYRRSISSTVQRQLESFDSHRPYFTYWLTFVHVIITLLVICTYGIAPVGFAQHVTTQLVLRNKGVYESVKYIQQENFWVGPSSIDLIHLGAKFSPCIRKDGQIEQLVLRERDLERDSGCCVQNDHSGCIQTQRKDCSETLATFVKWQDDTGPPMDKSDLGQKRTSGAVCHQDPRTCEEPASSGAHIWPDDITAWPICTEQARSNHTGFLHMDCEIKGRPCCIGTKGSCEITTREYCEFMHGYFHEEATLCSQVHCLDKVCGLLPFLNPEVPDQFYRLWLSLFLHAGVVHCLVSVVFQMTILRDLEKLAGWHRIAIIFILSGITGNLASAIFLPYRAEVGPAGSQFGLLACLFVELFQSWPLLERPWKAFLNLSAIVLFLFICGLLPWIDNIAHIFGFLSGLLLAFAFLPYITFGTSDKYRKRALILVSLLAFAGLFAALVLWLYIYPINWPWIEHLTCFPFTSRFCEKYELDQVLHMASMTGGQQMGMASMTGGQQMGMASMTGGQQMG
How it was run: (§1)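 Read-out is PE fluorescence by flow cytometry after two-step staining: antibody at 3 μg/ml for 1 hour on ice, then PE-labelled goat anti-mouse IgG F(ab′)2 (1:100) for 1 hour on ice.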

hiR2-FL-T555A-T7 = biological target: T2, hiR2-FL-T555A-T7 (human, UniProt Q6PJF5 1-856); experiment: as above
T2 sequence: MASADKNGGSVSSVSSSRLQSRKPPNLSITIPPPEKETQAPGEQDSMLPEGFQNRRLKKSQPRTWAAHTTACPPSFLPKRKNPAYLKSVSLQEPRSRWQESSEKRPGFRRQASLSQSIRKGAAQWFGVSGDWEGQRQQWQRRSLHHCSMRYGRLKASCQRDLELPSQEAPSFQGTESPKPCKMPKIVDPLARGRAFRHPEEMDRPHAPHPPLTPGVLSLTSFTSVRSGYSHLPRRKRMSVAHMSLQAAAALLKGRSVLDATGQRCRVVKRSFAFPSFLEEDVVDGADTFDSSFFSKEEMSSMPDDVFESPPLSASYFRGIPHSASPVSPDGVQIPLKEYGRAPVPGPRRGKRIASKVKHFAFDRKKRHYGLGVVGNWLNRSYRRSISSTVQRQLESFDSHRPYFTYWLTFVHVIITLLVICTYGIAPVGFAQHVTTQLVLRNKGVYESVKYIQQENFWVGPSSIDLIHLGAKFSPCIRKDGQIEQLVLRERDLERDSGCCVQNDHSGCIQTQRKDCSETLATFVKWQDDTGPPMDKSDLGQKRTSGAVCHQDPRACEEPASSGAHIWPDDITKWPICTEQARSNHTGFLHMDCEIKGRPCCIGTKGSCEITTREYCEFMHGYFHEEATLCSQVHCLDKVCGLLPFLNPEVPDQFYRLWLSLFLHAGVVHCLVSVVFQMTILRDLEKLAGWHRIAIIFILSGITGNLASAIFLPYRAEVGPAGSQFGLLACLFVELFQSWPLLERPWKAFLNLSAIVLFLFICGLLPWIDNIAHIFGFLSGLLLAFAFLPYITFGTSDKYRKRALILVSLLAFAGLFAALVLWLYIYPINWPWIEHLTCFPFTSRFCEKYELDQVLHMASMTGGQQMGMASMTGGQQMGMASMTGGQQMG
How it was run: as §1

B1: antibody 3 (antibody, V domains shown)
VH: QVTLKESGPGILQPSQTLSLTCSFSGFSLTTFAMGIGWVRQPSGKGLEWLAHIWWDGEKYNNPVLKSRLTISKDTSKNQVFLRIANVDTPDTATYYCARISSIYYIIDNWGQGTSVTVSS
VL: DIVLTQSPATLSVTPGHSVSLSCRASQSISNNLHWYQKKSHESPRLLIKYVSQSISGIPSRFSGSGSGTDFTLSINSVETEDFGMYFCQQSYNWPLTFGAGTKLELK
notes: mouse IgG, kappa light chain; also called clone #3; purified antibody 3
loss of binding vs wild type (hiR2-FL-K573A-T7): ≥ 30%
loss of binding vs wild type (hiR2-FL-T555A-T7): ≥ 30%
